In paper PMC11032371 (Cell Death Discovery, 2024):

Key:
M1-diUb [1] = molecular target: T1, M1-diUb (UniProt P0CG48 1-76; P0CG48 1-76); experiment: ITC; 293 K; 50 mM HEPES pH 7.4, 50 mM NaCl, 0.5 mM TCEP; cell 50–100 μM, syringe usually 10-fold; 20 injections of 2 μl; averages of at least two experiments; which partner was in the syringe not stated; details: both partners purified
T1 construct: ubiquitin, distal unit of M1-linked (linear) diUb; ubiquitin, proximal unit of M1-linked (linear) diUb; also called M1-linked diUb; linear diUb

monoUb [2] = molecular target: T2, monoUb (UniProt P0CG48 1-76); experiment: as above; details: both partners purified
T2 construct: ubiquitin; 15N-labelled in some NMR titrations; also called ubiquitin

[3] = molecular target: the molecule itself; experiment: SEC; analytical size exclusion, Superose 12 10/300; 50 mM HEPES pH 8.5, 150 mM NaCl, 1 mM DTT, 0.5% Triton X-100
M1-diUb [4] = molecular target: T1, M1-diUb; experiment: SPR; Biacore S200; TF-N4BP1 fragment amine-coupled to a CM5 chip, mono- and diUb flowed over at 30 μl/min; HBS-P+ (10 mM HEPES pH 7.4, 150 mM NaCl, 0.05% Tween 20), 25 °C; KD from plateau levels; details: both partners purified
monoUb [5] = molecular target: T2, monoUb; experiment: as above; details: both partners purified

B1: N4BP1 (850–893) (domain or fragment, mouse, UniProt Q6A037 850-893, looked up)
chain: ETSELREALLKIFPDSEQKLKIDQILAAHPYMKDLNALSALVLD
notes: His-tag removed with 3C protease for ITC and NMR; 15N- or 15N/13C-labelled for NMR; also called isolated CUE domain; N4BP1 CUE domain; not shown: His-tag, N-terminal, cleaved
dH (M1-diUb [1]): -22.2 kJ/mol | stoichiometry N (M1-diUb [1]): 2.16 | Kd (monoUb [2]): 27.5 ± 5.6 µM | dH (monoUb [2]): -21.8 kJ/mol | stoichiometry N (monoUb [2]): 0.915 | binding result [3]: binds

B2: TF-N4BP1 (613–893) (domain or fragment, mouse, UniProt Q6A037 613-893, looked up)
chain: ADLKHIVIDGSNVAITHGLKKFFSCRGIAIAVEYFWKLGNRNITVFVPQWRTRRDPNITEQHFLTQLQELGILSLTPARMVFGERIASHDDRFLLHLADKTGGIIVTNDNFREFVTESVSWREIITKRLLQYTFVGDIFMVPDDPLGRNGPRLEEFLRKEAFLRHMQPLLNALPSVGTFDPGFRSPSTQVANNSHQPPPRIQTSSSPWLPQQSHFTALATLPSMQQNPPLPAQRSSAETSELREALLKIFPDSEQKLKIDQILAAHPYMKDLNALSALVLD
notes: also called dimeric N4BP1
Kd (M1-diUb [4]): 0.43 µM | Kd (monoUb [5]): 84.9 µM

B3: N4BP1 (613-774), from pCold-I, His-tagged (domain or fragment, mouse, UniProt Q6A037 613-774, looked up)
chain: ADLKHIVIDGSNVAITHGLKKFFSCRGIAIAVEYFWKLGNRNITVFVPQWRTRRDPNITEQHFLTQLQELGILSLTPARMVFGERIASHDDRFLLHLADKTGGIIVTNDNFREFVTESVSWREIITKRLLQYTFVGDIFMVPDDPLGRNGPRLEEFLRKEAF
notes: N4BP1, mouse, RNase domain, residues 613-774; source: E. coli BL21, purified
binding result [3]: binds

B4: N4BP1 (613–893), from pCold-I, His-tagged (domain or fragment, mouse, UniProt Q6A037 613-893, looked up)
chain: B2 chain
notes: source: E. coli BL21, purified
binding result [3]: binds
